Measurements as given in paper PMC11417362, “Template-independent synthesis and 3′-end labelling of 2′-modified oligonucleotides with terminal deoxynucleotidyl transferases” (Nucleic Acids Research, 2024).

How the values were obtained:
[1] = substrate: CO[C@@H]1[C@H](O)[C@@H](COP(=O)(O)OP(=O)(O)OP(=O)(O)O)O[C@H]1n1cnc2c(=O)[nH]c(N)nc21; assay: steady-state primer extension, denaturing PAGE, Michaelis-Menten fit; type: biochemical, Mus musculus; conditions: 100 nM ssDNA primer FAM-18G, 10 mM Mg(OAc)2, 1x TdT buffer (100 mM KCl, 30 mM Tris-acetate, 0.05% Triton X-100), pH 7.5, 37°C
Description: (§1) steady-state primer extension, denaturing PAGE, Michaelis-Menten fit on murine TdT

[2] = substrate: Cc1cn([C@H]2C[C@H](O)[C@@H](COP(=O)(O)OP(=O)(O)OP(=O)(O)O)O2)c(=O)[nH]c1=O; assay: as above; type: biochemical, Mus musculus; conditions: 100 nM ssDNA primer FAM-18G, 10 mM Mg(OAc)2, 1x TdT buffer (100 mM KCl, 30 mM Tris-acetate, 0.05% Triton X-100), pH 7.5, 37°C
Description: as §1

[3] = substrate: Nc1ccn([C@@H]2O[C@H](COP(=O)(O)OP(=O)(O)OP(=O)(O)O)[C@@H](O)[C@@H]2F)c(=O)n1; assay: as above; type: biochemical, Mus musculus; conditions: 100 nM ssDNA primer FAM-18G, 10 mM Mg(OAc)2, 1x TdT buffer (100 mM KCl, 30 mM Tris-acetate, 0.05% Triton X-100), pH 7.5, 37°C
Description: as §1

[4] = substrate: Nc1ccn([C@H]2C[C@H](O)[C@@H](COP(=O)(O)OP(=O)(O)OP(=O)(O)O)O2)c(=O)n1; assay: as above; type: biochemical, Mus musculus; conditions: 100 nM ssDNA primer FAM-18G, 10 mM Mg(OAc)2, 1x TdT buffer (100 mM KCl, 30 mM Tris-acetate, 0.05% Triton X-100), pH 7.5, 37°C
Description: as §1

[5] = substrate: Nc1nc2c(ncn2[C@@H]2O[C@H](COP(=O)(O)OP(=O)(O)OP(=O)(O)O)[C@@H](O)[C@@H]2F)c(=O)[nH]1; assay: as above; type: biochemical, Mus musculus; conditions: 100 nM ssDNA primer FAM-18G, 10 mM Mg(OAc)2, 1x TdT buffer (100 mM KCl, 30 mM Tris-acetate, 0.05% Triton X-100), pH 7.5, 37°C
Description: as §1

[6] = substrate: Nc1nc2c(ncn2[C@@H]2O[C@H](COP(=O)(O)OP(=O)(O)OP(=O)(O)O)[C@@H](O)[C@H]2F)c(=O)[nH]1; assay: as above; type: biochemical, Mus musculus; conditions: 100 nM ssDNA primer FAM-18G, 10 mM Mg(OAc)2, 1x TdT buffer (100 mM KCl, 30 mM Tris-acetate, 0.05% Triton X-100), pH 7.5, 37°C
Description: as §1

[7] = substrate: Nc1ncnc2c1ncn2[C@H]1C[C@H](O)[C@@H](COP(=O)(O)OP(=O)(O)OP(=O)(O)O)O1; assay: as above; type: biochemical, Mus musculus; conditions: 100 nM ssDNA primer FAM-18G, 10 mM Mg(OAc)2, 1x TdT buffer (100 mM KCl, 30 mM Tris-acetate, 0.05% Triton X-100), pH 7.5, 37°C
Description: as §1

[8] = substrate: O=c1ccn([C@@H]2O[C@H](COP(=O)(O)OP(=O)(O)OP(=O)(O)O)[C@@H](O)[C@H]2F)c(=O)[nH]1; assay: as above; type: biochemical, Mus musculus; conditions: 100 nM ssDNA primer FAM-18G, 10 mM Mg(OAc)2, 1x TdT buffer (100 mM KCl, 30 mM Tris-acetate, 0.05% Triton X-100), pH 7.5, 37°C
Description: as §1

[9] = substrate: CO[C@@H]1[C@H](O)[C@@H](COP(=O)(O)OP(=O)(O)OP(=O)(O)O)O[C@H]1n1ccc(N)nc1=O; assay: purified protein, by the assay type
Description: (§2) The steady-state kinetic experiments were performed as described previously with minor modifications ([61]). A 2× reaction solution was prepared by mixing 200 nM primer FAM-18G, 0–128 μM 2′-modified NTP and 20 mM Mg(OAc)2 in 2× TdT buffer. A 5 μl aliquot of pre-warmed 2× reaction solution was mixed with 5 μl of bovine TdT, MTdT-evo or murine TdT of varying concentration, and incubated at 37°C for a certain time. The reaction was then quenched by the addition of 10 μl of 2× TBE-urea sample buffer and incubation at 95°C for 10 min. The products were analysed with 20% denaturing PAGE gels containing 8 M urea. All gel bands were quantified using Quantity One analysis software (Bio-Rad). Km and kcat values were calculated by fitting the data to the Michaelis–Menten equation with GraphPad Prism 8 software. To quantify the activities of different TdTs for the incorporation of 2′-modified NTPs, steady-state kinetic experiments were carried out.

[10] = substrate: Nc1ncnc2c1ncn2[C@@H]1O[C@H](COP(=O)(O)OP(=O)(O)OP(=O)(O)O)[C@@H](O)[C@@H]1F; assay: purified protein, by the assay type
Description: as §2

[11] = substrate: Nc1ncnc2c1ncn2[C@@H]1O[C@H](COP(=O)(O)OP(=O)(O)OP(=O)(O)O)[C@@H](O)[C@H]1F; assay: purified protein, by the assay type
Description: as §2

[12] = substrate: O=c1ccn([C@@H]2O[C@H](COP(=O)(O)OP(=O)(O)OP(=O)(O)O)[C@@H](O)[C@@H]2F)c(=O)[nH]1; assay: purified protein, by the assay type
Description: as §2

B1: murine TdT (Mus musculus) (protein)
chain: MDPLQAVHLGPRKKRPRQLGTPVASTPYDIRFRDLVLFILEKKMGTTRRAFLMELARRKGFRVENELSDSVTHIVAENNSGSDVLEWLQLQNIKASSELELLDISWLIECMGAGKPVEMMGRHQLVVNRNSSPSPVPGSQNVPAPAVKKISQYACQRRTTLNNYNQLFTDALDILAENDELRENEGSCLAFMRASSVLKSLPFPITSMKDTEGIPCLGDKVKSIIEGIIEDGESSEAKAVLNDERYKSFKLFTSVFGVGLKTAEKWFRMGFRTLSKIQSDKSLRFTQMQKAGFLYYEDLVSCVNRPEAEAVSMLVKEAVVTFLPDALVTMTGGFRRGKMTGHDVDFLITSPEATEDEEQQLLHKVTDFWKQQGLLLYCDILESTFEKFKQPSRKVDALDHFQKCFLILKLDHGRVHSEKSGQQEGKGWKAIRVDLVMCPYDRRAFALLGWTGSRQFERDLRRYATHERKMMLDNHALYDRTKRVFLEAESEEEIFAHLGLDYIEPWERNA
notes: recombinant, plasmid pET28a-murine TdT, E. coli BL21(DE3)
Km [1]: 1.97 ± 0.14 µM | kcat [1]: 0.00217 ± 8.67e-05 s⁻¹ | kcat/Km [1]: 1100 M⁻¹ s⁻¹ | Km [2]: 1.00 ± 0.33 µM | kcat [2]: 0.0198 ± 0.00183 s⁻¹ | kcat/Km [2]: 19800 M⁻¹ s⁻¹ | Km [3]: 1.66 ± 0.71 µM | kcat [3]: 0.09 ± 0.00667 s⁻¹ | kcat/Km [3]: 54200 M⁻¹ s⁻¹ | Km [4]: 1.37 ± 0.18 µM | kcat [4]: 0.058 ± 0.0055 s⁻¹ | kcat/Km [4]: 42300 M⁻¹ s⁻¹ | Km [5]: 2.75 ± 0.23 µM | kcat [5]: 0.247 ± 0.007 s⁻¹ | kcat/Km [5]: 90000 M⁻¹ s⁻¹ | Km [6]: 2.59 ± 0.36 µM | kcat [6]: 0.0892 ± 0.0055 s⁻¹ | kcat/Km [6]: 34500 M⁻¹ s⁻¹ | Km [7]: 2.53 ± 0.30 µM | kcat [7]: 0.0307 ± 0.00118 s⁻¹ | kcat/Km [7]: 12100 M⁻¹ s⁻¹ | Km [8]: 0.95 ± 0.31 µM | kcat [8]: 0.00617 ± 0.000567 s⁻¹ | kcat/Km [8]: 6480 M⁻¹ s⁻¹ | Km [9]: 5.1 ± 1.53 µM | kcat [9]: 0.00112 ± 8.67e-05 s⁻¹ | kcat/Km [9]: 219 M⁻¹ s⁻¹ | Km [10]: 3.98 ± 0.33 µM | kcat [10]: 0.204 ± 0.00283 s⁻¹ | kcat/Km [10]: 51300 M⁻¹ s⁻¹ | Km [11]: 0.62 ± 0.48 µM | kcat [11]: 0.023 ± 0.00108 s⁻¹ | kcat/Km [11]: 37200 M⁻¹ s⁻¹ | Km [12]: 2.36 ± 0.60 µM | kcat [12]: 0.06 ± 0.00433 s⁻¹ | kcat/Km [12]: 25500 M⁻¹ s⁻¹
